Source: patent US20060217306A1, “Systemic treatment of infections with defensins” (Novozymes A/S, priority 2005, published 2006)
Where “and” joins values, the source holds several entries; their conditions need not be identical. Equal entries are not always repeated. No end group written: not given here.

Columns and labels:
[1] = Stability in human serum; residual activity by radial diffusion assay with Staphylococcus carnosus; type: in vitro ADME; details: 37° C.; for Activity (%) 10% serum / Activity (%) 90% serum: 100 mg/L; for Activity (%) 10% serum: 10% human serum; for Activity (%) 90% serum: 90% human serum
Procedure: To assess the stability of the defensins in human serum, according to the invention, a solution of 100 mg/L of a defensin in fresh normal human serum is incubated at 37 degrees Celsius for 0, 1, 3, 6 and 24 hours. Residual activity is measured by performing radial diffusion assays with a sensitive indicator organism (e.g., Staphylococcus carnosus or E. coli); by performing a quantification by HPLC, LCMSMS; or by performing various ELISA techniques well known to a person skilled in the art.
To assess serum stability, Plectasin (100 mg/L) was incubated at 37° C. in 10% and 90% fresh normal human serum for 0, 1, 3, 6 & 24 hours. Residual activities were measured by performing radial diffusion assays with Staphylococcus carnosus.

[2] = Single dose intravenous toxicity study in the mouse / maximum tolerable dose; type: in vivo; details: 125 mg/kg single i.v. dose
Procedure: The study, to determine the maximum tolerable dose in mice, should be initiated with a sighting study to select the appropriate dose level for the main study. For example, six dose levels could be investigated using one male and one female mouse at each dose level.
On the basis of any signs of toxicity, the selected dose is administered to five male and five female mice as a single intravenous dose in a dose volume of 10 ml/kg. The dose should be administered slowly in the tail vein (e.g., 20 seconds per injection using a 1 ml syringe with a 25G hypodermic needle). All animals should be observed for any signs of toxicity after 15 minutes, 1 hour, 3 hours, 6 hours and 24 hours after administration.
A single intravenous dose was administered slowly in the tail vein (20 seconds per injection) using a 1 ml syringe with a 25G hypodermic needle to 5 male and 5 female mice. […] Body weight was recorded on Day 1, 2, 8 and 15. At termination of the study gross necropsy examination of all animals was carried out.

[3] = Systemic availability: in vivo kinetics, serum concentration by LCMSMS; parameters: species or system NMRI female mice; details: for Serum concentration: 14 mg/kg single dose, individual mice; for Maximum observed mean concentration / Time of maximum observed mean concentration: serum
Procedure: The in vivo kinetics of plectasin was investigated in NMRI female mice, 25-30 gram (Harlan Scandinavia Aps), after a single 14 mg/kg dose, administered by either intravenous, subcutaneous or intraperitoneal routes. Plectasin concentrations in serum samples were determined 5, 15, 30, 60, 120 and 180 minutes after dosing, using two mice at each time point. At each time point, urine was collected, then mice were anaesthetized with CO2 and blood collected. The blood samples were centrifuged and serum collected. The concentration of plectasin in serum and urine were determined by LCMSMS.
The maximum observed mean concentrations for i.v., s.c. and i.p. dosing were: 95 mg/L after 5 min., 55 and 34 mg/L after 30 min., respectively.

[4] = system: S. pneumoniae strain 68034; experiment: Treatment of pneumococcal peritoneal infection, colony counts in peritoneal wash, strain 68034; type: in vivo, mice; details: for Colony counts: strain 68034, peritoneal wash, individual mice
Procedure: (§1) Three different pneumococcal strains were employed in this study (6A, D39 and 68034). Three mice per sampling point were inoculated with a specific S. pneumoniae i.p., and were treated 1 hour later with a single dose of 10 mg/kg Plectasin. Peritoneal wash was sampled for microbial counts prior to treatment (T=0), and at T=2 and T=5 hrs after. The colony counts are listed below for all three strains.

S. pneumoniae strain D39 [5] = experiment: Treatment of pneumococcal peritoneal infection, colony counts in peritoneal wash, strain D39; type: in vivo, mice; details: for Colony counts: strain D39, peritoneal wash, individual mice
Procedure: as §1

S. pneumoniae strain 6A = experiment: Treatment of pneumococcal peritoneal infection, colony counts in peritoneal wash, strain 6A; type: in vivo, mice; details: for Colony counts: peritoneal wash, individual mice
Procedure: as §1

S. pneumoniae D39 = experiment: Survival after peritoneal infection with S. pneumoniae D39; type: in vivo; details: groups of eight mice, vehicle 0/8
Procedure: as §1
Treatment with Plectasin s.c. 10 mg/kg was initiated one hour after inoculation as described in Example 4A above. The following dosing regimens were investigated in groups of eight mice: vehicle treated, Plectasin once daily (OD) for one day, twice daily (BID) for one day or BID for two days. […] The survival fraction of the vehicle treated control group was 0/8 mice (P<0.0002).

S. pneumoniae 68034 = experiment: Survival after peritoneal infection with S. pneumoniae 68034; type: in vivo; details: s.c. 10 mg/kg BID for one or two days, groups of eight mice; vehicle 0/8, P<0.0002
Procedure: as §1
Treatment with Plectasin s.c. 10 mg/kg was initiated one hour after inoculation as described in Example 4A above. The following dosing regimens were investigated in groups of eight mice: vehicle treatment, Plectasin BID for one or two days. The survival fraction at seven days post-infection was 6/8 for Plectasin treated mice and 0/8 for vehicle treated mice (P<0.0002).

S. pneumoniae strain D39 [6] = experiment: Treatment of pneumococcal pneumonia, colony counts in lung homogenates; type: in vivo, mice; details: for Colony counts in lung homogenates: one day after treatment, individual mice
Procedure: Six to seven mice per sampling point (12 in the no-treatment group) were inoculated with S. pneumoniae (data only shown for strain D39) via the nasopharynx, and 24 hrs later the animals received Plectasin 10 mg/kg or penicillin 30 mg/kg.

[7] = 2 hours after single dose 10 mg/kg, 10 mg/kg
[8] = 5 hours after single dose 10 mg/kg, 10 mg/kg

Substance: Plectasin: Defensin shown as amino acids 1 to 40 of SEQ ID NO: 2 in international patent application WO 03/044049; defensin antimicrobial peptide (GFGCNGPWDEDDMQCHNHCKSIKGYKGGYCAKGGFVCKCY; ends and bridges not checked; cysteine pairing not given here; UniProt Q53I06 56-95, looked up)
- Activity (%) 10% serum ([1]; 0 hours): 100%
- Activity (%) 10% serum ([1]; 1 hour): ˜100%
- Activity (%) 10% serum ([1]; 3 hours): ˜100%
- Activity (%) 10% serum ([1]; 6 hours): ˜100%
- Activity (%) 10% serum ([1]; 24 hours): ˜100%
- Activity (%) 90% serum ([1]; 0 hours): 100%
- Activity (%) 90% serum ([1]; 1 hour): ˜100%
- Activity (%) 90% serum ([1]; 3 hours): ˜100%
- Activity (%) 90% serum ([1]; 6 hours): ˜100%
- Activity (%) 90% serum ([1]; 24 hours): ˜100%
- Residual activity (in words) ([1]; after 24 hours of incubation in 90% human serum): Full activity was retained
- Finding at the injection site ([2]; 10 ml/kg, 15 minutes after treatment, 5 male and 5 female mice): all animals had a discoloration at the injection site
- Other signs of toxicity ([2]; 10 ml/kg, observed over 14 days): No other signs of toxicity were observed
- Gross necropsy ([2]; at termination of the study): no abnormalities
- Terminal half-life ([3]; 14 mg/kg, mice, estimated): 49 to 54 min
- Serum concentration ([3]; IP, 5 min, 14 mg/kg): 9400 ng/mL and 7200 ng/mL
- Serum concentration ([3]; IP, 15 min, 14 mg/kg): 26000 ng/mL and 31600 ng/mL
- Serum concentration ([3]; IP, 30 min, 14 mg/kg): 32500 ng/mL and 35400 ng/mL
- Serum concentration ([3]; IP, 60 min, 14 mg/kg): 27700 ng/mL and 14300 ng/mL
- Serum concentration ([3]; IP, 120 min, 14 mg/kg): 10900 ng/mL and 20300 ng/mL
- Serum concentration ([3]; IP, 180 min, 14 mg/kg): 2600 ng/mL and 5600 ng/mL
- Serum concentration ([3]; IV, 5 min, 14 mg/kg): 92100 ng/mL and 97900 ng/mL
- Serum concentration ([3]; IV, 15 min, 14 mg/kg): 58800 ng/mL and 58100 ng/mL
- Serum concentration ([3]; IV, 30 min, 14 mg/kg): 35700 ng/mL and 27300 ng/mL
- Serum concentration ([3]; IV, 60 min, 14 mg/kg): 14900 ng/mL and 15600 ng/mL
- Serum concentration ([3]; IV, 120 min, 14 mg/kg): 5300 ng/mL and 4900 ng/mL
- Serum concentration ([3]; IV, 180 min, 14 mg/kg): 2300 ng/mL and 3500 ng/mL
- Serum concentration ([3]; SC, 5 min, 14 mg/kg): 20300 ng/mL and 25400 ng/mL
- Serum concentration ([3]; SC, 15 min, 14 mg/kg): 49400 ng/mL and 56600 ng/mL
- Serum concentration ([3]; SC, 30 min, 14 mg/kg): 50300 ng/mL and 60000 ng/mL
- Serum concentration ([3]; SC, 60 min, 14 mg/kg): 24800 ng/mL and 27200 ng/mL
- Serum concentration ([3]; SC, 120 min): 29800 ng/mL
- Serum concentration ([3]; SC, 180 min, 14 mg/kg): 4600 ng/mL and 7200 ng/mL
- Maximum observed mean concentration ([3]; i.p., 14 mg/kg): 34 mg/L
- Time of maximum observed mean concentration ([3]; i.p., 14 mg/kg): 30 min
- Concentration-time behavior ([3]; i.v. bolus administration, WinNonlin): two-compartment behavior
- Maximum observed mean concentration ([3]; i.v., 14 mg/kg): 95 mg/L
- Time of maximum observed mean concentration ([3]; i.v., 14 mg/kg): 5 min
- Maximum observed mean concentration ([3]; s.c., 14 mg/kg): 55 mg/L
- Time of maximum observed mean concentration ([3]; s.c., 14 mg/kg): 30 min
- Colony counts compared to vehicle treated mice ([4]; strain 68034, 10 mg/kg, P<0.0001): significant lower
- Colony counts ([4]; 0 hours (prior to treatment)): 3E5 and 5.5E5 and 3.5E5
- Colony counts [4, 7]: 3.25E4 (2×) and 1.5E4
- Colony counts [4, 8]: 4E2 and 1E2 and 7.5E1
- Colony counts compared to vehicle treated mice (S. pneumoniae strain D39 [5]; strain D39, 10 mg/kg, P<0.0001): significant lower
- Colony counts (S. pneumoniae strain D39 [5]; 0 hours (prior to treatment)): 3.25E6 and 1.8E6 (2×)
- Colony counts (S. pneumoniae strain D39 [5]; [7]): 2.75E4 and 1.1E4 and 2E4
- Colony counts (S. pneumoniae strain D39 [5]; [8]): 2.5E2 and 3.5E2 and 1E2
- Colony counts compared to vehicle treated mice (S. pneumoniae strain 6A; 10 mg/kg, P<0.0001): significant lower
- Colony counts (S. pneumoniae strain 6A; 0 hours (prior to treatment)): 1.1E6 and 1.55E6 and 1E6
- Colony counts (S. pneumoniae strain 6A; [7]): 3.5E5 (2×) and 1.78E5
- Colony counts (S. pneumoniae strain 6A; [8]): 2.13E4 and 1.43E3 and 1.45E3
- Survival over the 7-day study period (S. pneumoniae D39; s.c. 10 mg/kg BID for two days): All mice treated with Plectasin survived
- Survival over the 7-day study period (S. pneumoniae D39; s.c. 10 mg/kg once daily (OD) for one day): All mice treated with Plectasin survived
- Survival over the 7-day study period (S. pneumoniae D39; s.c. 10 mg/kg twice daily (BID) for one day): except for one mouse
- Survival fraction at seven days post-infection (S. pneumoniae 68034): 6/8
- Colony counts compared to no treatment (S. pneumoniae strain D39 [6]; strain D39, 10 mg/kg): significant reduction
- Colony counts in lung homogenates (S. pneumoniae strain D39 [6]; strain D39, 10 mg/kg given 24 hrs after inoculation): 3E1 (2×) and 5.25E3 and 6.75E2 and 9.75E4 and 2.25E3 and 1.5E2

Substance: penicillin [reference compound]
- Colony counts compared to no treatment (S. pneumoniae strain D39 [6]; strain D39, 30 mg/kg): significant reduction
- Colony counts in lung homogenates (S. pneumoniae strain D39 [6]; strain D39, 30 mg/kg given 24 hrs after inoculation): 7.5E1 (3×) and 4.5E3 and 2.25E4 and 4.89E5
